Laboratory results from PMC4510971 (2015).
Positions count from the first letter of the chain named. Names and notes keep the numbering of the source.

B1: UBN1(122–148) peptide (peptide)
peptide: IQDLIDMGYGYDESDSFIDNSEAYDEL
B2: UBN1(92–175) E147A (protein)
chain: NDEEKERHKVEALARKFEEKYGGKKRRKDRIQDLIDMGYGYDESDSFIDNSEAYDALVPASLTTKYGGFYINSGTLQFRQASES
B3: UBN1(92–175) A144I (protein)
chain: B2 chain with A53I, A56E
B4: UBN1(92–175) M128A (protein)
chain: B2 chain with M37A, A56E
B5: UBN1(92–175) E143A (protein)
chain: B2 chain with E52A, A56E
B6: UBN1(92–175) Y145A (protein)
chain: B2 chain with Y54A, A56E
B7: UBN1(92–175) D146A (protein)
chain: B2 chain with D55A, A56E
B8: UBN1(92–175) I126A (protein)
chain: B2 chain with I35A, A56E
B9: UBN1(92–175) (domain or fragment)
chain: B2 chain with A56E
B10: UBN1(92–175) I122A (protein)
chain: B2 chain with I31A, A56E
B11: UBN1(92–175) S137A (domain or fragment)
chain: B2 chain with S46A, A56E
B12: UBN1(92–175) L148A (protein)
chain: B2 chain with A56E, L57A
B13: UBN1(92–175) G131A (protein)
chain: B2 chain with G40A, A56E
B14: UBN1(92–175) D124A (protein)
chain: B2 chain with D33A, A56E
B15: UBN1(92–175) G129A (protein)
chain: B2 chain with G38A, A56E
B16: UBN1(92–175) D127A (protein)
chain: B2 chain with D36A, A56E
B17: UBN1(92–175) L125A (protein)
chain: B2 chain with L34A, A56E
B18: UBN1(92–175) Q123A (protein)
chain: B2 chain with Q32A, A56E
B19: UBN1(92–175) Y130A (protein)
chain: B2 chain with Y39A, A56E
B20: UBN1(122–175) (domain or fragment)
chain: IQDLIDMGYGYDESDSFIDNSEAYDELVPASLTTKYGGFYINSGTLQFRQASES
B21: UBN1(92–148) (domain or fragment)
chain: NDEEKERHKVEALARKFEEKYGGKKRRKDRIQDLIDMGYGYDESDSFIDNSEAYDEL

Each binder was assayed against H3.3(G90M)/H4 (human | X. laevis, UniProt P62799 1-103) (assay: ITC).

Kd [µM]	Binder
115	B1

Each binder was assayed against T1, H3.3/H4 (human | X. laevis, UniProt P84243 1-136; P62799 1-103) (assay: FP).

IC50 [µM]	Binder
22.9	B2
16.3	B3
22.6	B4
29.3	B5
16.4	B6
23	B7
13.8	B8
16.6	B9
16.9	B10
16.2	B11
19.6	B12
19.9	B13
19.6	B14
67.8	B15
21.1	B16
15.1	B17
13.8	B18
14.4	B19

Target: T1, H3.3/H4
Test: FP
Remark: another data set of the same source

IC50 [µM]	Binder
46.4	B1

Each binder was assayed against T1, H3.3/H4 (assay: ITC).

Kd [µM]	Binder
14.6	B20
16.5	B21

Target: T1, H3.3/H4
Test: ITC
Remark: another data set of the same source

Kd [µM]	Binder
6.9	B9
